The values below come from patent US20090155249A1 (AC IMMUNE S A, published 2009).

The target in this assay is Amyloid Beta (antigen of the Amyloid Beta ELISA) (UniProt P05067 672-713, limits assumed). Description: Amyloid Beta ELISA, purified antibodies, A405. On the technique in general: An ELISA detects its analyte on a solid surface through an enzyme-linked reagent.
Amyloid Beta (antigen of the Amyloid Beta ELISA), sequence (P05067 672-713 limits assumed): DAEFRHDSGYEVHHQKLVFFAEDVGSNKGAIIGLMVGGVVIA

B1: chimeric antibody C2 ChVH AF/ChVK (antibody, V domains shown)
VH: EVQLVESGGGLVQPGGSLKLSCAASGFTFSSYGMSWVRQTPDKRLELVASINSNGGSTYYPDSVKGRFTISRDNAKNTLYLQMSSLKSEDTAMYYCASGDYWGQGSTLTVSS
VL: DVVMTQTPLSLPVSLGDQASISCRSSQSLVYSNGDTYLHWYLQKPGQSPKLLIYKVSNRFSGVPDRFSGSGSGTDFTLKISRVEAEDLGVYFCSQSTHVPWTFGGGTKLEIKR
notes: both forms are written under this id; also called C2 VH AF/C2 VK chimeric antibody; chimeric AF
In the case of B1, the “EC50 (read off the curve)” value is roughly 3 ng/well.
